Substrate: CC(=O)[C@@H](O)[C@H](O)COP(=O)(O)O
Experiment: Enzymatic activity of yaeM gene product (NADPH decrease, absorbance at 340 nm)
Format: biochemical, E. coli
Settings: other: in the presence of MnCl2; pH 7.5; 37.0 °C
Description: 0.3 mol/l of 1-deoxy-D-xylulose 5-phosphate (final concentration) synthesized as described above was added to 1 ml of a reaction solution containing 100 mol/l Tris-hydrochloric acid (pH 7.5), 1 mol/l MmCl2, 0.3 mol/l NADPH and yaeM gene product obtained in Example 8 (2) ? , and then incubated at 37° C.
The enzymological characteristics of 1-deoxy-D-xylulose 5-phosphate reductoisomerase were examined using 1 ml of the reaction system as described in Example 8 (2) ? . Here, 1 unit is defined as the activity to oxidize 1 mmol of NADPH per a minute.

B1: 1-deoxy-D-xylulose 5-phosphate reductoisomerase (Escherichia coli K-12) (protein)
chain: MKQLTILGSTGSIGCSTLDVVRHNPEHFRVVALVAGKNVTRMVEQCLEFSPRYAVMDDEASAKLLKTMLQQQGSRTEVLSGQQAACDMAALEDVDQVMAAIVGAAGLLPTLAAIRAGKTILLANKESLVTCGRLFMDAVKQSKAQLLPVDSEHNAIFQSLPQPIQHNLGYADLEQNGVVSILLTGSGGPFRETPLRDLATMTPDQACRHPNWSMGRKISVDSATMMNKGLEYIEARWLFNASASQMEVLIHPQSVIHSMVRYQDGSVLAQLGEPDMVRQLPTPWAWPNRVNSGVKPLDFCKLSALTFAAPDYDRYPCLKLAMEAFEQGQAATTALNAANEITVAAFLAQQIRFTDIAALNLSVLEKMDMREPQCVDDVLSVDANAREVARKEVMRLAS
notes: made in house; host or cells: E. coli M15/pREP4
B1 gave a Km of 249 µM.
